Test results as given in the supplement of paper PMC12042874.
± gives the uncertainty stated by the source.

Assay: amyloid nucleation score (Sup35N fusion, yeast selection) (log enrichment); library NNK2; higher = more nucleation; inactive = no reads after selection
Method in brief: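 Nucleation score: DiMSum log enrichment of output over input reads, centred on the mode score of non-aggregating sequences. Only sequences with at least 100 input reads were kept. Reads came from Illumina sequencing of plasmid inserts before and after 7 days of growth at 30°C without adenine and uracil, in psi-negative yeast expressing Sup35N fused to peptides of 20 random codons after 24 hours of induction with 100 μM copper sulfate.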

Substance	amyloid nucleation score
IDILTVICVPEIYNWFLMQY	-0.842 ± 0.35
IDLAHGWSSSH	0.66 ± 0.57
IDLTHECVRVWVDSKLLSPF	-0.742 ± 1.1
IDMYRRQYDQSQIKCNFSS	-0.087 ± 0.45
IDNYFIRVKTFSDFMSSLDG	inactive
IDVGI	0.106 ± 0.2
IDYRPDCQRPVLVYLNKGCM	-0.389 ± 0.24
IEDYACMLNREMG	5.36 ± 0.049
IEFSDQVRCYLFCCRC	8.977 ± 0.07
IEIHALRPEQMFSVLGYGVQ	0.146 ± 0.27
IEMLSNY	-0.575 ± 0.49
IEPSHFNGNSASWV	-0.184 ± 0.63
IFDAFWYTVTVRDNDG	1.76 ± 0.17
IFFVRACSKAGFVQPLSIFY	-0.113 ± 0.65
IFIRMH	2.48 ± 0.16
IFPLDQLQIFWLSLTMTMQL	-0.829 ± 1.1
IFQRWHIS	-2.67 ± 1.1
IFRCRYTSGRFNAALSCC	-1.44 ± 0.49
IFRDNVYFIE	-0.692 ± 1
IFSTPKTLDPVFYCL	inactive
IFTKNFIPCDFFMS	-2.05 ± 0.76
IFYGRYGAILWGAKCLY	1.96 ± 0.21
IGGLISLGISSIERGYSSLI	inactive
IGIDRL	-0.069 ± 0.49
IGLTLHMRRVVGAKSFKMPL	0.29 ± 0.77
IGSLNMLLLGRLVVWMRHIA	0.312 ± 0.54

Substance	amyloid nucleation score
IGSRVVYISRVLLKNWTLVT	-0.592 ± 0.76
IGWFKRRSCVEFGRRRMRIL	-1.3 ± 1.1
IHAFLALVNCNDTSTKTEVK	-0.435 ± 0.56
IHGVFCEFVRIIRNVGSAIR	-0.226 ± 0.35
IHLKLRRYLDNYYLNATNCG	-0.509 ± 0.31
IIAPSSEL	-0.479 ± 0.63
IICAKDMFNLFIKVRQYGWS	4.698 ± 0.038
IIEIRAASGPVGFSDINMF	-0.459 ± 1.1
IIGGTYIWVCVRGPTGRFDG	9.373 ± 0.064
IIKECEWNCIVTSDIAYVRW	5.481 ± 0.052
IILFTIARDLSRVGFRFLMA	-0.545 ± 0.56
IILTVNRRMDLEGYFYFMFE	-0.93 ± 1
IIMFRVYVM	-0.964 ± 0.76
IIRVSSCPCTNI	inactive
IISENAYCLPMIMT	-0.437 ± 0.54
IITGLQFLD	-0.691 ± 0.79
IITIIKF	7.164 ± 0.03
IIVFKEESYIYKTRSVLGSR	-0.503 ± 0.56
IIVYFVAFASTGARASK	-0.951 ± 0.54
IKEFYISQNFVNSHLRLANM	-1.51 ± 1.1
IKGGRQAYNPTLGEVRGCAR	2.93 ± 0.13
IKISNLTTKVMSHFVSGVAK	-0.982 ± 0.48
IKLLLMSLTVSVTGILQFKP	4.51 ± 0.05
IKLQMSLATAQIETGTHGLH	3.51 ± 0.16
IKSVRTWGSLESA	-0.073 ± 0.34
IKTSDYNHFRYWSKRPYVSW	-0.738 ± 1.1

Substance	amyloid nucleation score
IKTYNGGSWGALSCIALRLI	-1.39 ± 0.78
ILASCTSRCFESEVRGTSFA	0.568 ± 0.39
ILCYMFVYYAYA	0.016 ± 1.1
ILDRYLVHGI	-0.394 ± 0.78
ILELDMLLCKKVTHL	4.3 ± 0.089
ILFWFRT	4.9 ± 0.043
ILGCWELSHM	-0.849 ± 1.1
ILISIISFTKSCNISISLEW	-0.603 ± 1.1
ILLHIDNGRRSFSNIKATS	-0.886 ± 1.1
ILLLFVPSDFRNICFE	-0.532 ± 0.29
ILLMNVNGILSIRVQRRKRV	-0.623 ± 0.79
ILMCETLWNWLKWIPKFNSC	-0.403 ± 0.5
ILRLTAVCHGHFAVRPDWKR	0.248 ± 0.35
ILRSRGERISASY	2.97 ± 0.14
ILVRTSCGGM	-0.898 ± 1.1
ILVTAYTFTMVRSDEGCRKV	3.63 ± 0.085
ILVWANSHVLDVDHRDRGRR	1.9 ± 0.13
ILVYDEVTSYQDPYFS	-0.69 ± 0.63
ILWISHLELCENVLVLDWQM	2.99 ± 0.048
ILYGSGVFSSG	-1.17 ± 1.1
ILYYLGWVASALEGHYLDES	-0.853 ± 0.55
IMCQVSR	-0.171 ± 1
IMCRETRLYMGMFVFDQLPQ	6.46 ± 0.079
IMLATAAYFVLLGIFPGAWF	inactive
IMLGTFMRNLQNLQHFVRHV	0.337 ± 0.57
IMPLSKLCMWETIRSDGRRG	1.07 ± 0.29

Substance	amyloid nucleation score
IMRVMPICRFVII	1.25 ± 0.12
IMSSV	inactive
IMVRLLDAYHTMRAKDSMGN	0.06 ± 0.62
INGQDKHRHWSFTLFYKKRY	-0.145 ± 1.1
INGVPNGYMATLGTTCVKKF	-1.11 ± 0.4
INMTLELDSVRRNLLYAGGG	-0.142 ± 0.55
INRCMLIPTRFVVAYSWKCV	-1.03 ± 0.78
INVHSSSG	0.344 ± 0.36
IPITSGIRRNCSSVRKDLGC	0.123 ± 0.39
IPRIDDSDLFRTLDF	-0.52 ± 1.1
IPTTQLAHCGQVACPARVVP	1.23 ± 0.28
IPYNLIASVMLFKDLNWFAK	6.491 ± 0.05
IQASSLMVAKERFWGDLWWL	4.34 ± 0.1
IQDWHVES	-0.075 ± 0.46
IQLMEFWLSGGLTVIMGILR	-0.971 ± 0.61
IQPQSSVVERGQMNMVGPTP	1.49 ± 0.12
IRAGAWLEICRSAVVSGPSF	-0.073 ± 0.33
IRCGREGLRR	inactive
IRCLFVT	inactive
IREYHMFDGHMRDRCFGQVK	-0.048 ± 0.65
IRFKVMGFMFFVSW	0.094 ± 0.65
IRFQCRSLRFTAIGGQVSWI	3.48 ± 0.095
IRFRVLVPNLGKASDRFQVP	-0.19 ± 0.53
IRFWLRRFICD	-0.528 ± 0.36
IRFYGS	inactive
IRGSKSFHLCEAK	0.213 ± 0.33

Substance	amyloid nucleation score
IRKCICSWCVECILRNPAKA	-0.434 ± 0.4
IRLTSAYLHSDVWGVMQWNK	4.823 ± 0.041
IRMLLYCMESELKGASVEAG	-0.037 ± 0.5
IRMVDTCRVLKLSGEPFSRD	-0.993 ± 0.78
IRNDKYW	-0.101 ± 0.31
IRSFEFHNAWMCVYIWSKLY	-0.271 ± 1
IRSLMSR	2.32 ± 0.061
IRSMACDIPGV	-0.255 ± 0.65
IRSNIGNSWNTLIFVYCCYT	6.415 ± 0.049
IRTDSTNMCF	-0.647 ± 1.1
IRVTCLLGL	-0.055 ± 0.2
IRVYFRDEYLKFG	-0.358 ± 0.19
IRWSVGSGKIRGSFLLLMDL	-0.432 ± 1.1
IRYNLGGDQLG	-0.805 ± 0.44
IRYWLNERMVSDRRTVTGGV	7.47 ± 0.077
IRYWSMLLEVG	5.683 ± 0.046
ISAWAWHQVTWRIPGALVVG	0.294 ± 1.1
ISCKSFENTTHPALIPRVKA	-0.331 ± 0.5
ISCNKIIDIKMWGWVCAIA	8.729 ± 0.035
ISDLCNASGWIRKDTSSRRL	-0.27 ± 0.23
ISESLSRWART	3.69 ± 0.12
ISFDLCIKRWQK	5.946 ± 0.054
ISGRLNRDGGSDKMSAEREG	1.25 ± 0.33
ISGWYVVSSVS	0.912 ± 0.22
ISHLRVLEQSLLAEWADNFP	2.08 ± 0.097
